Laboratory results as given in PMC8067709, “Crystal Structure of the Epo1-Bem3 Complex for Bud Growth” (International Journal of Molecular Sciences, 2021).

T1: Epo1^CC2-CC4 (746-943) with 6xHis tag, isolated protein
T1 chain: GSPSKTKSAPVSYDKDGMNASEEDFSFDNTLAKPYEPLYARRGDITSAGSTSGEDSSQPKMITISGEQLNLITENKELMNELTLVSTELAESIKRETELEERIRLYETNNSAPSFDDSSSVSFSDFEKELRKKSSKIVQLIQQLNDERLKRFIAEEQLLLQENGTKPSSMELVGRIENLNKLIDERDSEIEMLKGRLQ

T2: Bem3^CC1 (1-99) with 6xHis tag, isolated protein (Saccharomyces cerevisiae, UniProt P32873 1-99)
T2 chain: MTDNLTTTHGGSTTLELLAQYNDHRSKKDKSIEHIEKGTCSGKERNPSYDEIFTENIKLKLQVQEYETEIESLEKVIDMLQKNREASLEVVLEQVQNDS


Experiments:
[1] = biological target: Scs2-Msp (1-128), N-His (Saccharomyces cerevisiae) (UniProt P40075); experiment: MST; Monolith NT.115; RED-tris-NTA labeled N-His Scs2-Msp (100 nM) with a serial dilution of Epo1, Bem3 or EB complex from 2 mM; 20 mM Tris-HCl pH 8.0, 150 mM NaCl, 4 mM MgCl2, 0.05% Tween 20
Scs2-Msp (1-128), N-His (Saccharomyces cerevisiae), sequence (P40075 1-128): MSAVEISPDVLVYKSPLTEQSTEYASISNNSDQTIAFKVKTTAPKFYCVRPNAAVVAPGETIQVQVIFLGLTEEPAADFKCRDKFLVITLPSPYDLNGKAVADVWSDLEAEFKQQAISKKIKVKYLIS

[2] = biological target: T1, Epo1^CC2-CC4 (746-943) with 6xHis tag, …; experiment: SPR; conditions: chain shown with the change;; parent: 72.65
[3] = biological target: the molecule itself; experiment: SEC-MALS; Superdex 200 10/300 with DAWN HELEOS II; 100 uL of 2-4 mg/mL protein; 20 mM Tris pH 8.0, 150 mM NaCl, 4 mM MgCl2
[4] = biological target: T2, Bem3^CC1 (1-99) with 6xHis tag, …; experiment: SPR
[5] = biological target: Epo1^CC2-CC4 (746-943) with 6xHis tag, isolated protein (Saccharomyces cerevisiae); experiment: SEC-MALS; Superdex 200 10/300 with DAWN HELEOS II; 100 uL of 2-4 mg/mL protein; 20 mM Tris pH 8.0, 150 mM NaCl, 4 mM MgCl2

Molecule	Kd [1] [µM]	Kd [4] [µM]	further results
Epo1^CC2-CC4-Bem3^CC1 complex (from UniProt P32873 1-99)	120		
Bem3^CC1 (1-99) with 6xHis tag, isolated protein, P32873 R84A (protein) MTDNLTTTHGGSTTLELLAQYNDHRSKKDKSIEHIEKGTCSGKERNPSYDEIFTENIKLKLQVQEYETEIESLEKVIDMLQKNAEASLEVVLEQVQNDS			Kd [2]: 137 µM
Bem3^CC1 (1-99) with 6xHis tag, isolated protein (domain or fragment, Saccharomyces cerevisiae, UniProt P32873 1-99, looked up, Bem3, Saccharomyces cerevisiae, residues 1-99 (CC1 domain); Dimer in solution by MALS; theoretical molecular mass printed as 11.39 kDa; also called N-His-unlabeled Bem3^CC1; wild-type (wt) Bem3^CC1; source: pET-22b construct, purified (Hitrap Q ion-exchange); not shown: 6xHis, N-terminal, kept) MTDNLTTTHGGSTTLELLAQYNDHRSKKDKSIEHIEKGTCSGKERNPSYDEIFTENIKLKLQVQEYETEIESLEKVIDMLQKNREASLEVVLEQVQNDS			stoichiometry N [3]: 2
Epo1^CC2-CC4 (746-943) with 6xHis tag, isolated protein (domain or fragment) GSPSKTKSAPVSYDKDGMNASEEDFSFDNTLAKPYEPLYARRGDITSAGSTSGEDSSQPKMITISGEQLNLITENKELMNELTLVSTELAESIKRETELEERIRLYETNNSAPSFDDSSSVSFSDFEKELRKKSSKIVQLIQQLNDERLKRFIAEEQLLLQENGTKPSSMELVGRIENLNKLIDERDSEIEMLKGRLQ	170	72.7	stoichiometry N [5]: 2
Epo1CC2-CC4-Q888A (protein, Entity 1 of 6LP3 is Epo1 (YMR124W) 746-943, so entity position = residue number - 745 (Q888 = 143, K881 = 136, R876 = 131). Q888A is taken from the figure label; the text says Q884A and the legend Q88A. Epo1 CC2-CC4 alone is a homodimer in solution; one chain is given.) GSPSKTKSAPVSYDKDGMNASEEDFSFDNTLAKPYEPLYARRGDITSAGSTSGEDSSQPKMITISGEQLNLITENKELMNELTLVSTELAESIKRETELEERIRLYETNNSAPSFDDSSSVSFSDFEKELRKKSSKIVQLIQALNDERLKRFIAEEQLLLQENGTKPSSMELVGRIENLNKLIDERDSEIEMLKGRLQ		115	
Epo1-CC-K881A (domain or fragment) GSPSKTKSAPVSYDKDGMNASEEDFSFDNTLAKPYEPLYARRGDITSAGSTSGEDSSQPKMITISGEQLNLITENKELMNELTLVSTELAESIKRETELEERIRLYETNNSAPSFDDSSSVSFSDFEKELRKKSSAIVQLIQQLNDERLKRFIAEEQLLLQENGTKPSSMELVGRIENLNKLIDERDSEIEMLKGRLQ		375	
